Literature values, collected in paper PMC11449392.
pKd: −log10 of the molar value.

Target: Abl PRM (Homo sapiens) (UniProt P00519)
Sequence of UniProt P00519 (P00519 whole entry, looked up): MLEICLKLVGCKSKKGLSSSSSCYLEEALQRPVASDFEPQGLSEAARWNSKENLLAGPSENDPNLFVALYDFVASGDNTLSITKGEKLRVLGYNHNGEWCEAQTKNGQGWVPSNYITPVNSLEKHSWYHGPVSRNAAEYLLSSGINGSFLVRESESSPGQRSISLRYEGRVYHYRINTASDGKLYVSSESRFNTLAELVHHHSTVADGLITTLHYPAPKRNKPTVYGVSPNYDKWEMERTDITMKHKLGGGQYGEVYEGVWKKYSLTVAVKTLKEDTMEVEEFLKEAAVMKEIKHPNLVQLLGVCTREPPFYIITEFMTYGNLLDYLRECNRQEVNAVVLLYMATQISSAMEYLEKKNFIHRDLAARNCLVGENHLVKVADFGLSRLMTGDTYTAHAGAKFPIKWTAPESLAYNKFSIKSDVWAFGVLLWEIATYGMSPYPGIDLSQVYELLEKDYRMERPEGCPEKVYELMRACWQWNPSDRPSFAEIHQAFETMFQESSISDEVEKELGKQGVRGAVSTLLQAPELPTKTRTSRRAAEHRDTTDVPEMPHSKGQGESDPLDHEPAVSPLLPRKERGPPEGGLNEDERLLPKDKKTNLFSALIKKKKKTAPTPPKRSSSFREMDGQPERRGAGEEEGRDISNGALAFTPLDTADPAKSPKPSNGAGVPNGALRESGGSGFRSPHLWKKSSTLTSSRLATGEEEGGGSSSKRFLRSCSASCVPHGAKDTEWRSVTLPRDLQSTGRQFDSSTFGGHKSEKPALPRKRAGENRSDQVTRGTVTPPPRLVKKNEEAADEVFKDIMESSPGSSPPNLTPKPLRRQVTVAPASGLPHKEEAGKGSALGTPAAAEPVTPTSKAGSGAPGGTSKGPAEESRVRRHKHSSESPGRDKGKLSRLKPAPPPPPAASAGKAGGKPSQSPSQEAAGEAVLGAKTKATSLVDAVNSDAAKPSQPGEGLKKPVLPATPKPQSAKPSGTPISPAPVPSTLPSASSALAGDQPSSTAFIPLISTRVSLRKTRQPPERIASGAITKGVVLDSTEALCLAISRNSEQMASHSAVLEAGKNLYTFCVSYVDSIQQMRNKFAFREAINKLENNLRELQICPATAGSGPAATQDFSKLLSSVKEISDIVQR

pKd: 3.46
Substance: Nck second SH3 domain (from UniProt P16333)
